From US20140056964A1, “GRANZYME B INHIBITOR COMPOSITIONS, METHODS AND USES FOR PROMOTING WOUND HEALING” (THE UNIVERSITY OF BRITISH COLUMBIA, priority 2010, published 2014)

Test system: wild type C57BL/6 mice
Experiment: full thickness skin wound in mice, decorin immunohistochemistry of closed wound tissue
Assay type: in vivo, mouse
Conditions: 1 cm full thickness back wound, 60 μl applied directly onto the wound, 16 days
Description: As depicted in FIG. 23, decorin distribution is impacted by serpina3n in closed wound tissue. Seven week old wild type C57BL/6 mice were given a 1 cm diameter full thickness wound on their backs. Mice were then given either saline (upper panels) or the Granzyme B inhibitor, serpina3n (lower panels), by applying 60 μl of the appropriate solution directly onto the wound immediately following the wounding procedure. Wounds were allowed to heal for 16 days, at which point mice were sacrificed and the closed wound tissue harvested. […] Increased decorin throughout the newly formed dermis thus provides more organized collagen, less scarring and increased tensile strength.

B1: serpina3n: the Granzyme B inhibitor, serpina3n; Serpina3n is also known as SerpinA3 (protein, UniProt Q91WP6 21-418, looked up)
Serine protease inhibitor A3N: FPDGTLGMDAAVQEDHDNGTQLDSLTLASINTDFAFSLYKELVLKNPDKNIVFSPLSISAALAVMSLGAKGNTLEEILEGLKFNLTETSEADIHQGFGHLLQRLNQPKDQVQISTGSALFIEKRQQILTEFQEKAKTLYQAEAFTADFQQPRQAKKLINDYVRKQTQGMIKELVSDLDKRTLMVLVNYIYFKAKWKVPFDPLDTFKSEFYAGKRRPVIVPMMSMEDLTTPYFRDEELSCTVVELKYTGNASALFILPDQGRMQQVEASLQPETLRKWKNSLKPRMIDELHLPKFSISTDYSLEDVLSKLGIREVFSTQADLSAITGTKDLRVSQVVHKAVLDVAETGTEAAAATGVKFVPMSAKLYPLTVYFNRPFLIMIFDTETEIAPFIAKIANPK
  decorin distribution (immunohistochemistry) in newly formed dermis: intense decorin staining near the dermal-epidermal junction but also demonstrated intense decorin staining deeper into the dermis
